Measured values taken from the DeepSol protein solubility set.

Assay: soluble on expression in E. coli; label from the status in PepcDB or PDB records
In the case of “STLQPRCEDVETAEGVALTVTGVAQVKIMTEKELLAVACEQFLGKNVQDIKNVVLQTLEGHLRSILGTLTVEQIYQDRDQFAKLVREVAAPDVGRMGIEILSFTIKDVYDKVDYLSSLGKTQTAVVQRDADIGVAEAERDAGIREAECKKEMLDVKFMADTKIADSKRAFELQKSAFSEEVNIKTAEAQLAYELQGAREQQKIRQEEIEIEVVQRKKQIAVEAQEILRTDKELIATVRRPAEAEAHRIQQIAEGEKVKQVLLAQAEAEKIRKIGEAEAAVIEAMGKAEAERMKLKAEAYQKYGDAAKMALVLEALPQIAAKIAAPLTKVDEIVVLSGDNSKVTSEVNRLLAELPASVHALTGVDLSKIPLIKKATGVQV”, the “soluble on expression in E. coli” value was “not soluble”.
With “STPETLPGHTKAKQPYREDTEWLKGQQIGLGAFSSCYQAQDVGTGTLMAVKQVTYVRNTSSEQEEVVEALREEIRMMSHLNHPNIIRMLGATCEKSNYNLFIEWMAGGSVAHLLSKYGAFKESVVINYTEQLLRGLSYLHENQIIHRDVKGANLLIDSTGQRLRIADFGAAARLASKGTGAGEFQGQLLGTIAFMAPEVLRGQQYGRSCDVWSVGCAIIEMACAKPPWNAEKHSNHLALIFKIASATTAPSIPSHLSPGLRDVALRCLELQPQDRPPSRELLKHPVFRTTW” the “soluble on expression in E. coli” value was “soluble”.
For “STQESTQCHRSYLLPSGNSVTLSESTAIVSHGTTGLVTWDAALYLAEWAIENPAAFTDRTILELGSGAGLTGLAICKACCPRAYIFSDCHAQVLEQLRGNVLLNGFSLEPHTPIDAGSSKVTVAQLDWDEVTASQLSAFQADVVIAADVLYCWEMTLSLVRVLKMLEDCQRKSAPDVYVAYTIRSQDTGKLFIEELDRAGIYWEEVPPHTGKLFPYEEHSAIVILKLVLTSRHGV”, the “soluble on expression in E. coli” value was “soluble”.
With “SVADANGSSSSSFNFLIYGKTGWIGGLLGKLCEAQGITYTYGSGRLQDRQSIVADIESVKPSHVFNAAGVTGRPNVDWCESHKVETIRTNVAGTLTLADICREKGLVLINYATGCIFEYDSGHPLGSGIGFKEEDTPNFTGSFYSKTKAMVEELLKNYENVCTLRVRMPISSDLTNPRNFITKIARYEKVVDIPNSMTILDELLPISIEMAKRNLTGIYNFTNPGVVSHNEILEMYRDYIDPSFTWKNFTLEEQAKVIVAPRSNNELDATKLKTEFPELMSIKESLIKFVFEPNKKTEVKA” the “soluble on expression in E. coli” value was “soluble”.
In the case of “SVICCAAVNCSNRQGKGEKRAVSFHRFPLKDSKRLIQWLKAVQRDNWTPTKYSFLCSEHFTKDSFSKRLEDQHRLLKPTAVPSIFHLTEKKRGAGGHGRTRRKDASKATGGVRGHSSAATGRGAAGWSPSSSGNPMAKPESRRLKQAALQGEATPRAAQEAASQEQAQQALERTPGDGLATMVAGSQGKAEASATDAGDESATSSIEGGVTDKSGISMDDFTPPGSGACKFIGSLHSYSFSSKHTRERPSVPREPIDRKRLKKDVEPSCSGSSLGPDKGLAQSPPSSSLTATPQKPSQSPSAPPADVTPKPATEAVQSEHSDASPMSINEVILSASGACKLIDSLHSYCFSSRQNKSQVCCLREQVEKKNGELKSLRQRVSRSDSQVRKLQEKLDELRRVSVPYPSSLLSPSREPPKMNPVVEPLSWMLGTWLSDPPGAGTYPTLQPFQYLEEVHISHVGQPMLNFSFNSFHPDTRKPMHRECGFIRLKPDTNKVAFVSAQNTGVVEVEEGEVNGQELCIASHSIARISFAKEPHVEQITRKFRLNSEGKLEQTVSMATTTQPMTQHLHVTYKKVTP”, the “soluble on expression in E. coli” value was “soluble”.
In the case of “SVKETENLLQTGISEVRGTLKISAPRDIGKQIISPMVSAFSEQYPDVTPYLYLNDNLSNLAESGLDLVIRYGELADSNLISRRLASSQRVLCASPDYLSKQGVPNCPQDLAAHRCLAMVRSNEELKTWHFKDEESHQSITVTPKRFSDDGEVIRQWALDGAGIALKSILDIQQDLKQQRLVTVLDGYMKNFSAFSQGAEADLHVIYQSRQYQPKRVRLFLDFLVEQFSALSDTSNQI”, the “soluble on expression in E. coli” value was “not soluble”.
For “SVLPETPVPFKSGTGAIDNDTVYIGLGSAGTAWYKLDTQAKDKKWTALAAFPGGPRDQATSAFIDGNLYVFGGIGKNSEGLTQVFNDVHKYNPKTNSWVKLMSHAPMGMAGHVTFVHNGKAYVTGGVNQNIFNGYFEDLNEAGKDSTAIDKINAHYFDKKAEDYFFNKFLLSFDPSTQQWSYAGESPWYGTAGAAVVNKGDKTWLINGEAKPGLRTDAVFELDFTGNNLKWNKLAPVSSPDGVAGGFAGISNDSLIFAGGAGFKGSRENYQNGKNYAHEGLKKSYSTDIHLWHNGKWDKSGELSQGRAYGVSLPWNNSLLIIGGETAGGKAVTDSVLITVKDNKVTVQNLEHHHHHH”, the “soluble on expression in E. coli” value was “soluble”.
In the case of “SYFSIFSPSFTSLRHDGKPVQCSGLDMQFDPSEPGFYDDPDLSYSIEKPITKWDEKRNQWFESHPSFKPGSENRIVMVTGSQSSPCKNPIGDHLLLRCFKNKVDYARIHGHDIFYSNSLLHPKMNSYWAKLPVVKAAMLAHPEAEWIWWVDSDAIFTDMEFKPPLHRYRQHNLVVHGWPNIIYEKQSWTALNAGVFLIRNCQWSMDLIDTWKSMGPVSPDYKKWGPIQRSIFKDKLFPESDDQTALIYLLYKHKELYYPKIYLEAEYYLQGYWIGVFGDFANVTERYLEMEREDDTLRRRHAEKVSERYGAFREERFLKGEFGGRGSRRRAFITHFTGCQPCSGDHNPSYDGDTCWNEMTRALNFADNQVMRVYGYVHSDLSKTSPLQPLPFDYPNEAW”, the “soluble on expression in E. coli” value was “soluble”.
In the case of “SYRSRSAFKLLEVNERHQILRPGLRVLDCGAAPGAWSQVAVQKVNAAGTDPSSPVGFVLGVDLLHIFPLEGATFLCPADVTDPRTSQRILEVLPGRRADVILSDMAPNATGFRDLDHDRLISLCLTLLSVTPDILQPGGTFLCKTWAGSQSRRLQRRLTEEFQNVRIIKPEASRKESSEVYFLATQYHGRKGTVKQ”, the “soluble on expression in E. coli” value was “soluble”.
In the case of “TALADVVITGYQTLSKERATGSFDKVDSSVLSSRPTADLSTALQGLVAGMQATEKEDGSIDFLIRGSSSLYADKKPLLVVDGFPIQGDFSSINPNDVESVTVLKDAAAASIWGARSANGVIVVTTKKGKKDK”, the “soluble on expression in E. coli” value was “not soluble”.
In the case of “TAMRALIESLPTITEGEGRFVPYNDDEGGEEENVCTTEHVEMAKAKNWKVLTSWGEPFPGITALISIEGESEYSVYAQDGILYLSGMEQGLPVQ”, the “soluble on expression in E. coli” value was “not soluble”.
In the case of “TDPDADRLGVEIRQPDGSYLNLSGNQIGAIIAKYILEAHKTAGTLPANAALCKSIVSTELVTKIAESYGATMFNVLTGFKFIGEKIHEFETQHNYTYMFGFEESFGYLIKPFVRDKDAIQAVLIVAEIAAYYRSRGMTLADGIEEIYKQYGYFSE”, the “soluble on expression in E. coli” value was “not soluble”.
For “TEELEKAYDSLKESEEHLRLTLEGSKAGMWMWDLRANWKITPQMNALLGRSESSPIKYEEFISMIHPEDQERVAQAWNKAIECKDFYDQEYRIFLPDGSIHWLSSKGSVIELHSGIRQLMGITTDIT”, the “soluble on expression in E. coli” value was “not soluble”.
In the case of “TKAHRDAARRIAAESFVLLKNDNVTLRPGTPAEPLLPFNPKGNIAVIGPLADSRTNMPGTWSVAAVLDRCPSLVEGLKEMTAGKANILYAKGSNLISDASYEERATMFGRSLNRDNRTDEQLLNEALTVANQSDIIIAALGESSEMSGESSSRTDLNIPDVQQNLLKELLKTGKPVVLVLFTGRPLTLTWEQEHVPAILNVWFGGSEAAYAIGDALFGYVNPGGKLTMSFPKNVGQIPLYYAHKNTGRPLAQGKWFEKFRSNYLDVDNEPLYPFGYGLSYTTFSYGDIDLSR”, the “soluble on expression in E. coli” value was “not soluble”.
For “TKDFSWNTTFNISHNKNEIVTLDGMQTEIISGTQIRKVGKSYRTFYMIEFAGINPETGAPQFYTNDLDENGNYIKEITEKYSEANAIVLDKHAEPNVIGGLSNTLRYKWFDLNFMFSYQFGGYSYDNWAQKTEHGGNDLEANIPTYYRDSWKQPGDITKYELFIESPDVAMNKSTTTRRLHSSDFIRLKTLTFGITLPQVWTQKIGVNNVRVYASANNLWTWAAYDYYDPEAVSGGSAIWGTPPLKTVTFGLSVNF”, the “soluble on expression in E. coli” value was “not soluble”.
In the case of “TMIAIKPTKLKDFSSLMQLDVQEEQIGFAKPFEQAYQKRNKSEVFFTIYSDYLTVGYLIIDKGFAQHAPFAMRHELGLNYLMIDRRFQRQGIGAEALKKLFVYAYTIDPESTSLCVTVPNSHQGALDFFLACGFTNTEKAIYGEQEKEWLMRHPL”, the “soluble on expression in E. coli” value was “not soluble”.
For “TNRVADLTIYIIRQGVLDRRYLGEIERLYTENKFTNMCLVLNDVSYSGSRGTYGYGYGYGYGNKEYGKQGKKLRRRSAKKTKKFKIGPMKKS”, the “soluble on expression in E. coli” value was “not soluble”.
For “TPAAPISTVADGDWPAYGRNQEGQRFSPLKQINADNVKNLKEAWVFRTGDLKQPNDPGEITNEVTPIKVGDTLFLCTAHQRLFALDAATGKEKWHFDPQLNADPSFQHVTCRGVSYHEAKADNAPADVVADCPRRIILPVNDGRLFAVNADNGKLCETFANKGILNLQTNMPVTTPGMYEPTSPPIITDKTIVIAGAVTDNFSTREPSGVIRGFDVNTGKLLWAFDPGAKDPNAIPSDEHHFTLNSPNSWAPAAYDAKLDLVYLPMGVTTPDIWGGNRTPEQERYASSIVALNATTGKLAWSYQTVHHDLWDMDMPSQPTLADIEVNGKTVPVIYAPAKTGNIFVLDRRNGELVVPAPEKPVPQGAAKGDYVTKTQPFSDLSFRPKKDLTGADMWGATMFDQLVCRVIFHQLRYEGIFTPPSEQGTLVFPGNLGMFEWGGISVDPNRQVAIANPMALPFVSKLIPRGPGNPMEPPKDAKGSGTESGVQPQYGVPYGVTLNPFLSPFGLPCKQPAWGYISALDLKTNEVVWKKRIGTPQDSLPFPMPVKLPFTMGMPMLGGPISTAGNVLFIGATADNYLRAYNMSNGEKLWEARLPAGGQATPMTYEVNGKQYVVISAGGHGSFGTKMGDYIVAYALPDDAK”, the “soluble on expression in E. coli” value was “not soluble”.
With “TPDIQMTQSPSSLSASVGDRVTITVQASQDIIKHLNWYQQTPGKAPKLLIYEASNLQAGVPSRFSGSGSGTDYTFTISSLQPEDIATYYCQQYQSLPYTFGQGTKLQIT” the “soluble on expression in E. coli” value was “soluble”.
In the case of “TQETFPPKYLHYDEETSHQLLCDKCPPGTYLKQHCTAKWKTVCAPCPDHYYTDSWHTSDECLYCSPVCKELQYVKQECNRTHNRVCECKEGRYLEIEFCLKHRSCPPGFGVVQAGTPERNTVCKRCPDGFFSNETSSKAPCRKHTNCSVFGLLLTQKGNATHDNICSGNSESTQKCGIDVTLCEEAFFRFAVPTKFTPNWLSVLVDNLPGTKVNAESVERIKRQHSSQEQTFQLLKLWKHQNKDQDIVKKIIQDIDLCENSVQRHIGHANLTFEQLRSLMESLPGKKVGAEDIEKTIKACKPSDQILKLLSLWRIKNGDQDTLKGLMHALKHSKTYHFPKTVTQSLKKTIRFLHSFTMYKLYQKLFLEMIGNQVQSVKISCL”, the “soluble on expression in E. coli” value was “not soluble”.
In the case of “TRFVPGGPVERMLSQMQSQGDGAASMTSAGGNTALSDEQIAELNAFYGLDKPVMEAYVDWLSRLVTLDLGESTRYYEPVSDMIAERLP”, the “soluble on expression in E. coli” value was “not soluble”.
With “TSKFQWTSDFNIGFNRNRVTELYGGKPELKGLKRLEEGRDMDEWYLREWAGVDPANGSPLWYTTDENGKRTTTDSYNKADRVYCGSAAPKFTGGWMNSFSYKGFTLTANFDFVYGNLLYNQSRELLDSDGAYADYNSMKLKSGWKRWEKEGDIATHPKAINGGNKNSNKSSSRYLEKGNYFSLRNLSLGYSIPEKLCGKLGLQRVNVSCSADNLFTLTPFSGVSPQLSDSSTDGYAGTIYPLSRRIVFGLNVSF” the “soluble on expression in E. coli” value was “not soluble”.
